Earlier results on one substance are cited in article PMC3476528.

The data set concerns the target histone H3 (Homo sapiens) (UniProt P68431).

Chain of CHD4 PHD2 (Q14839 449-496): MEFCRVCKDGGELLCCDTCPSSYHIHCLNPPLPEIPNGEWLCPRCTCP

Take CHD4 PHD2 (from UniProt Q14839): the Kd (in general, the concentration at which binding is half-saturated) is 18 µM.
